# Experimental data from PMC6071530.
# Target: Recombinant human S100A4 (human) (UniProt P26447)
# Assay: SPR; BIAcore 2000; 2000 RU of recombinant human S100A4 immobilized covalently on a CM4 chip; soluble AR or NRG as analyte
# Chain of Recombinant human S100A4 (human) (P26447 whole entry): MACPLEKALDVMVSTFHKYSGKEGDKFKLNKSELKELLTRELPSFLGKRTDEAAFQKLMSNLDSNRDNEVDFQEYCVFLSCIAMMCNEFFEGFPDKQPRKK
substance,measurement,value
Neuregulin 1 (from UniProt Q02297 20-241) (ligand),Kd,19.9 nM
